In the supplement of paper PMC9732359 one finds protein stability index data, which are given here for 26 sequences.

± gives the uncertainty stated by the source.

The data set can be described thus: protein stability index of a GFP-peptide fusion (yeast GPS) (PSI 1-4); higher = more stable; sorted into four equal gates, so the index is relative within each strain. An outline of the steps:
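Tiled 17-residue yeast protein peptides were fused downstream of GFP in a plasmid that also expresses Cherry, and the pooled library was carried in yeast. Mid-log cultures in leucine-free medium were sorted into four equal gates by GFP/Cherry fluorescence ratio, and plasmids from each gate were PCR-amplified and Illumina-sequenced, with reads assigned to strains by barcodes. The protein stability index for each peptide was each gate's read frequency times its gate number, summed.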

GKHSQEQNSSSAKPSQI [SIR4]: the protein stability index reads like this: (doa10∆) 2.97 ± 0.067; (pdr5∆) 3.24 ± 0.072; (san1∆) 3.02 ± 0.06; (ubr1∆) 3.24 ± 0.052.

As to ETKADGILLETISVPQI [RRP6], the protein stability index was 2.58 ± 0.076 (doa10∆), 2.52 ± 0.056 (pdr5∆), 2.51 ± 0.061 (san1∆) and 2.26 ± 0.053 (ubr1∆).

Take LQKRVIEHNLRVISEYY [RPN5]: the protein stability index runs as follows: (doa10∆) 2.02 ± 0.12; (pdr5∆) 2.27 ± 0.11; (san1∆) 2.77 ± 0.069; (ubr1∆) 1.37 ± 0.095.

Consider ESLREIPYGPDFDNIEF [SEC65], for which the protein stability index came to 3.1 ± 0.072 (doa10∆), 3.12 ± 0.067 (pdr5∆), 2.92 ± 0.087 (san1∆) and 3.04 ± 0.057 (ubr1∆).

Take VCLMQISTRERDYLVDT [RRP6]: the protein stability index came out at 3.3 ± 0.22 (doa10∆), 3.4 ± 0.16 (pdr5∆), 3.49 ± 0.088 (san1∆) and 2.99 ± 0.089 (ubr1∆).

For the setting “san1∆”, GSLKLIELLCGLGKSAV [NAS6] returned a protein stability index of 3.08 ± 0.098.

Regarding IGDVDGLIVNPVKVSGT [POP5], the protein stability index reads like this: (doa10∆) 2.73 ± 0.048; (pdr5∆) 3.02 ± 0.046; (san1∆) 2.66 ± 0.035; (ubr1∆) 2.64 ± 0.035.

Turning to NAFRKEELLLKDLEIRK [GAL11], the protein stability index runs as follows: (pdr5∆) 3.09 ± 0.098; (san1∆) 3.18 ± 0.079; (ubr1∆) 3.03 ± 0.13.

With STKLSRPFDSFGKLLQA [ITC1], the protein stability index is 2.42 ± 0.054 (doa10∆), 2.67 ± 0.066 (pdr5∆), 2.35 ± 0.057 (san1∆) and 2.03 ± 0.063 (ubr1∆).

In the case of KVEKGVNIEPFNIDDEI [LIN1], the protein stability index is 3.52 ± 0.14 (doa10∆), 3 ± 0.21 (pdr5∆), 3.45 ± 0.14 (san1∆) and 3.49 ± 0.076 (ubr1∆).

Consider FVVPTFGQDVSPMINST [SNM1], for which the protein stability index amounted to 2.94 ± 0.084 (doa10∆), 2.89 ± 0.085 (pdr5∆), 2.89 ± 0.056 (san1∆) and 2.84 ± 0.067 (ubr1∆).

Turning to LTQGINGKEVPLAKIYL [MED1], the protein stability index stood at 2.52 ± 0.26 (doa10∆), 2.95 ± 0.17 (pdr5∆), 2.32 ± 0.2 (san1∆) and 2.21 ± 0.23 (ubr1∆).

On to KLLKSLLLNYLELIGVL [MED7], for which the protein stability index turned out to be 1.86 ± 0.052 (doa10∆), 1.56 ± 0.052 (pdr5∆), 1.14 ± 0.098 (san1∆) and 1.33 ± 0.058 (ubr1∆).

GSGVDSSKLQLTKKYSF [RRP42]: the protein stability index reads like this: (doa10∆) 2.67 ± 0.12; (pdr5∆) 2.8 ± 0.062; (san1∆) 1.55 ± 0.12; (ubr1∆) 2.83 ± 0.071.

Turning to PRVSNQSNEDTFLPSYM [RRI2], the protein stability index is, setting by setting: (doa10∆) 3.07 ± 0.087; (pdr5∆) 3.05 ± 0.09; (san1∆) 3.14 ± 0.089; (ubr1∆) 3.44 ± 0.067.

Take LEDLVFPTEIVGKRVRY [RPS7A]: the protein stability index reads like this: (pdr5∆) 3.52 ± 0.28; (ubr1∆) 3.71 ± 0.25.

With KSKERSSQFVRLASEPG [YMR129W/POM152], the protein stability index (doa10∆) was 2.65 ± 0.14, the protein stability index (pdr5∆) came out at 2.62 ± 0.13, the protein stability index (san1∆) came out at 3.16 ± 0.1 and the protein stability index (ubr1∆) amounted to 2.8 ± 0.074.

With CTESTRENALYDYYALQ [SNF2], the protein stability index is 1.83 ± 0.078 (doa10∆), 2.25 ± 0.064 (pdr5∆), 2.99 ± 0.048 (san1∆) and 2.91 ± 0.083 (ubr1∆).

Regarding EAESQWYIEKVIRIPMQ [CSI1], the protein stability index (pdr5∆) was determined as 2.96 ± 0.24 and the protein stability index (ubr1∆) turned out to be 2.71 ± 0.24.

For the sequence TLKKEWLKEYEDETLRR [YIL149C/MLP2], the protein stability index was 3.12 ± 0.21 (doa10∆), 3.2 ± 0.18 (pdr5∆) and 3.52 ± 0.12 (ubr1∆).

Turning to SGCENITDKTIESIVNL [GRR1], the protein stability index reads like this: (doa10∆) 2.81 ± 0.13; (pdr5∆) 2.94 ± 0.099; (san1∆) 1.54 ± 0.19; (ubr1∆) 2.98 ± 0.078.

For KRKSAQEPELSLDQGDA [SMC4], the protein stability index by setting is: (doa10∆) 3.23 ± 0.1; (pdr5∆) 3.19 ± 0.1; (san1∆) 3.09 ± 0.17; (ubr1∆) 3.39 ± 0.099.

Consider VKVSAAAGKANKQFAKF [RPS11A], for which the protein stability index by setting is: (doa10∆) 2.64 ± 0.081; (pdr5∆) 2.88 ± 0.074; (san1∆) 2.85 ± 0.065; (ubr1∆) 2.93 ± 0.044.

The sequence DFVRKGGLQKGKLVVSQ [SIR3] registered a protein stability index (doa10∆) of 3.14 ± 0.079, a protein stability index (pdr5∆) of 3.22 ± 0.091, a protein stability index (san1∆) of 2.75 ± 0.055 and a protein stability index (ubr1∆) of 3.35 ± 0.077.

With LKIFEGIPPPYDKKKRV [RPL16B], the protein stability index runs as follows: (doa10∆) 1.43 ± 0.15; (pdr5∆) 2.51 ± 0.087; (san1∆) 1.33 ± 0.24; (ubr1∆) 1.51 ± 0.066.

With LPQFRSSIQESLLSLVG [ECM29], the protein stability index reads like this: (doa10∆) 1.87 ± 0.067; (pdr5∆) 2.04 ± 0.048; (san1∆) 1.7 ± 0.1; (ubr1∆) 1.65 ± 0.054.
